In data set [1] the test system is HeLa Kyoto. Put plainly: thermal stability score vs G1/S (z-score of summed log2 fold changes over temperatures); higher = more thermally stable than in G1/S.
The test system of data set [2] is HeLa Kyoto. Put plainly: solubility in G1/S (NP-40 vs SDS abundance) (log2 ratio); higher = more soluble. Conditions: cell cycle stage: G1/S.
In data set [3] the test system is HeLa Kyoto. Put plainly: solubility change mitosis vs G1/S (difference of NP-40 vs SDS log2 ratios) (log2 ratio difference); higher = more soluble in mitosis.
The test system of data set [4] is HeLa Kyoto. As to the kind of experiment: melting temperature (median over replicates), in situ; higher = more thermally stable.
Where [5] appears, read: cell cycle stage: early G1 (4.5 h after nocodazole release).

We go through eight substances from the supplement of paper PMC5998384.
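For melting temperature (median over replicates), in situ in this document: HeLa Kyoto cells synchronized by double thymidine or nocodazole block, proteins quantified by TMT10plex mass spectrometry, three independent biological replicates.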
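For solubility change mitosis vs G1/S (difference of NP-40 vs SDS log2 ratios) in this document: synchronized HeLa Kyoto cells (double thymidine block for G1/S, nocodazole release for mitosis), protein amounts in NP-40 versus SDS lysates quantified by mass spectrometry, three biological replicates.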
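For solubility in G1/S (NP-40 vs SDS abundance) in this document: HeLa Kyoto cells arrested at G1/S by double thymidine block, proteins quantified by TMT10plex mass spectrometry in mild NP-40 versus SDS extracts, three biological replicates.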
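For thermal stability score vs G1/S (z-score of summed log2 fold changes over temperatures) in this document: synchronized HeLa Kyoto cells, proteins quantified by TMT10plex mass spectrometry, three biological replicates, mitosis taken 0.5 h after nocodazole release, G1/S directly after double thymidine block.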

Chain of MTO1 (chain, as listed by the source): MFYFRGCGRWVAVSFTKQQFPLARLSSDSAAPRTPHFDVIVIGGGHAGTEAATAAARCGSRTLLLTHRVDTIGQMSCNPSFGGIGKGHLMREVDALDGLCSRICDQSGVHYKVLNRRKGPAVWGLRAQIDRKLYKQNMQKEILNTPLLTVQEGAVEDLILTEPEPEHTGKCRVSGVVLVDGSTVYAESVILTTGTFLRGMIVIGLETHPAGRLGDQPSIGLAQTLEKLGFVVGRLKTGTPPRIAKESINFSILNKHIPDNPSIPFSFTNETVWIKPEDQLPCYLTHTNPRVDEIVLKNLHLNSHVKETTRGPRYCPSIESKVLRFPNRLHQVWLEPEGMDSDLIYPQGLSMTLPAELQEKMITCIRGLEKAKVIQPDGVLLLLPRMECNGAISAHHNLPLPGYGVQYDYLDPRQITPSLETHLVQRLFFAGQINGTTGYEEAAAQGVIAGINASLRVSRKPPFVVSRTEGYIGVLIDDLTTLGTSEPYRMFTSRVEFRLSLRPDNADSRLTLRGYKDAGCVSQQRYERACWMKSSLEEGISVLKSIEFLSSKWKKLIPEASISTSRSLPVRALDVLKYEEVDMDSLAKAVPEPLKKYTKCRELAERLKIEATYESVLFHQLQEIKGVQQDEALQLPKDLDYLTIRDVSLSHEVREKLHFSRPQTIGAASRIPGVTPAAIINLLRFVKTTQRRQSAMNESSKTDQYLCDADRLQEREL

With USP24, the thermal stability score in the data set on HeLa Kyoto [1] (setting [5]) was 0.0834; in the data set on HeLa Kyoto [1] (cell cycle stage: mitosis), -0.634. In addition, the “solubility in G1/S (log2)” value in the data set on HeLa Kyoto [2] was -0.205. The “solubility change mitosis (log2)” value in the data set on HeLa Kyoto [3] is -0.155. Also, the figures for the melting temperature with HeLa Kyoto [4] (cell cycle stage: G1/S) and in the data set with HeLa Kyoto [4] (cell cycle stage: mitosis) were 51.4 °C and 50.5 °C, respectively.
For the substance “MEPGPDGPAASGPAAIREGWFRETCSLWPGQALSLQVEQLLHHRRSRYQDILVFRSKTYGNVLVLDGVIQCTERDEFSYQEMIANLPLCSHPNPRKVLIIGGGDGGVLREVVKHPSVESVVQCEIDEDVIQVSKKFLPGMAIGYSSSKLTLHVGDGFEFMKQNQDAFDVIITDSSDPMGPAESLFKESYYQLMKTALKEDGVLCCQGECQWLHLDLIKEMRQFCQSLFPVVAYAYCTIPTYPSGQIGFMLCSKNPSTNFQEPVQPLTQQQVAQMQLKYYNSDVHRAAFVLPEFARKALNDVS [SRM]”, the thermal stability score in the data set on HeLa Kyoto [1] (setting [5]) amounted to 0.149; in the data set on HeLa Kyoto [1] (cell cycle stage: mitosis), 0.82. Moreover, in the data set on HeLa Kyoto [2], the “solubility in G1/S (log2)” value was 0.283. For the same substance, the “solubility change mitosis (log2)” value in the data set with HeLa Kyoto [3] was -0.232. In addition, the values for the melting temperature in the data set with HeLa Kyoto [4] (cell cycle stage: G1/S) and with HeLa Kyoto [4] (cell cycle stage: mitosis) were 51.8 °C and 51.9 °C, respectively.
For the substance “MTSSRLWFSLLLAAAFAGRATALWPWPQNFQTSDQRYVLYPNNFQFQYDVSSAAQPGCSVLDEAFQRYRDLLFGSGSWPRPYLTGKRHTLEKNVLVVSVVTPGCNQLPTLESVENYTLTINDDQCLLLSETVWGALRGLETFSQLVWKSAEGTFFINKTEIEDFPRFPHRGLLLDTSRHYLPLSSILDTLDVMAYNKLNVFHWHLVDDPSFPYESFTFPELMRKGSYNPVTHIYTAQDVKEVIEYARLRGIRVLAEFDTPGHTLSWGPGIPGLLTPCYSGSEPSGTFGPVNPSLNNTYEFMSTFFLEVSSVFPDFYLHLGGDEVDFTCWKSNPEIQDFMRKKGFGEDFKQLESFYIQTLLDIVSSYGKGYVVWQEVFDNKVKIQPDTIIQVWREDIPVNYMKELELVTKAGFRALLSAPWYLNRISYGPDWKDFYIVEPLAFEGTPEQKALVIGGEACMWGEYVDNTNLVPRLWPRAGAVAERLWSNKLTSDLTFAYERLSHFRCELLRRGVQAQPLNVGFCEQEFEQT [HEXA]”, the thermal stability score with HeLa Kyoto [1] (setting [5]) was 0.922; in the data set on HeLa Kyoto [1] (cell cycle stage: mitosis), 0.624. In the data set with HeLa Kyoto [2], the “solubility in G1/S (log2)” value came to 0.295. The “solubility change mitosis (log2)” value with HeLa Kyoto [3] was -0.164. The melting temperature in the data set on HeLa Kyoto [4] (cell cycle stage: G1/S) came out at 56.7 °C; with HeLa Kyoto [4] (cell cycle stage: mitosis), 56.1 °C.
For “MKPGFSPRGGGFGGRGGFGDRGGRGGRGGFGGGRGRGGGFRGRGRGGGGGGGGGGGGGRGGGGFHSGGNRGRGRGGKRGNQSGKNVMVEPHRHEGVFICRGKEDALVTKNLVPGESVYGEKRVSISEGDDKIEYRAWNPFRSKLAAAILGGVDQIHIKPGAKVLYLGAASGTTVSHVSDIVGPDGLVYAVEFSHRSGRDLINLAKKRTNIIPVIEDARHPHKYRMLIAMVDVIFADVAQPDQTRIVALNAHTFLRNGGHFVISIKANCIDSTASAEAVFASEVKKMQQENMKPQEQLTLEPYERDHAVVVGVYRPPPKVKN [FBL]”, the thermal stability score is -1.06 in the data set on HeLa Kyoto [1] (setting [5]) and -3.39 with HeLa Kyoto [1] (cell cycle stage: mitosis). For the same substance, the “solubility in G1/S (log2)” value in the data set on HeLa Kyoto [2] was -1.97. Further, in the data set on HeLa Kyoto [3], the “solubility change mitosis (log2)” value came to 1.49. Moreover, the melting temperature was determined as 52.9 °C in the data set with HeLa Kyoto [4] (cell cycle stage: G1/S) and 51.5 °C in the data set with HeLa Kyoto [4] (cell cycle stage: mitosis).
With “MRLPRRAALGLLPLLLLLPPAPEAAKKPTPCHRCRGLVDKFNQGMVDTAKKNFGGGNTAWEEKTLSKYESSEIRLLEILEGLCESSDFECNQMLEAQEEHLEAWWLQLKSEYPDLFEWFCVKTLKVCCSPGTYGPDCLACQGGSQRPCSGNGHCSGDGSRQGDGSCRCHMGYQGPLCTDCMDGYFSSLRNETHSICTACDESCKTCSGLTNRDCGECEVGWVLDEGACVDVDECAAEPPPCSAAQFCKNANGSYTCEECDSSCVGCTGEGPGNCKECISGYAREHGQCADVDECSLAEKTCVRKNENCYNTPGSYVCVCPDGFEETEDACVPPAEAEATEGESPTQLPSREDL [CRELD2]”, the thermal stability score was -5.44 with HeLa Kyoto [1] (setting [5]) and -1.73 with HeLa Kyoto [1] (cell cycle stage: mitosis). For the same substance, in the data set with HeLa Kyoto [2], the “solubility in G1/S (log2)” value amounted to 0.092. Also, in the data set on HeLa Kyoto [3], the “solubility change mitosis (log2)” value is -0.0918. The melting temperature in the data set on HeLa Kyoto [4] (cell cycle stage: G1/S) was determined as 57.2 °C; in the data set with HeLa Kyoto [4] (cell cycle stage: mitosis) it was 59.6 °C.
On to “MATAEVLNIGKKLYEGKTKEVYELLDSPGKVLLQSKDQITAGNAARKNHLEGKAAISNKITSCIFQLLQEAGIKTAFTRKCGETAFIAPQCEMIPIEWVCRRIATGSFLKRNPGVKEGYKFYPPKVELFFKDDANNDPQWSEEQLIAAKFCFAGLLIGQTEVDIMSHATQAIFEILEKSWLPQNCTLVDMKIEFGVDVTTKEIVLADVIDNDSWRLWPSGDRSQQKDKQSYRDLKEVTPEGLQMVKKNFEWVAERVELLLKSESQCRVVVLMGSTSDLGHCEKIKKACGNFGIPCELRVTSAHKGPDETLRIKAEYEGDGIPTVFVAVAGRSNGLGPVMSGNTAYPVISCPPLTPDWGVQDVWSSLRLPSGLGCSTVLSPEGSAQFAAQIFGLSNHLVWSKLRASILNTWISLKQADKKIRECNL [PAICS]”, for which the thermal stability score with HeLa Kyoto [1] (setting [5]) was -0.183; in the data set with HeLa Kyoto [1] (cell cycle stage: mitosis) it was -0.625. Besides, the “solubility in G1/S (log2)” value in the data set with HeLa Kyoto [2] was determined as 0.271. Also, the “solubility change mitosis (log2)” value with HeLa Kyoto [3] was -0.0303. Further, the melting temperature in the data set with HeLa Kyoto [4] (cell cycle stage: G1/S) came to 63.2 °C; in the data set on HeLa Kyoto [4] (cell cycle stage: mitosis), 66.2 °C.
With MTO1, the thermal stability score is -0.222 with HeLa Kyoto [1] (setting [5]) and 1.63 with HeLa Kyoto [1] (cell cycle stage: mitosis). For the same substance, in the data set with HeLa Kyoto [2], the “solubility in G1/S (log2)” value was -0.108. The “solubility change mitosis (log2)” value in the data set with HeLa Kyoto [3] is -0.0427. In addition, the melting temperature with HeLa Kyoto [4] (cell cycle stage: G1/S) stood at 50 °C; in the data set with HeLa Kyoto [4] (cell cycle stage: mitosis), 50.4 °C.
For the substance “MASNVTNKTDPRSMNSRVFIGNLNTLVVKKSDVEAIFSKYGKIVGCSVHKGFAFVQYVNERNARAAVAGEDGRMIAGQVLDINLAAEPKVNRGKAGVKRSAAEMYGSVTEHPSPSPLLSSSFDLDYDFQRDYYDRMYSYPARVPPPPPIARAVVPSKRQRVSGNTSRRGKSGFNSKSGQRGSSKSGKLKGDDLQAIKKELTQIKQKVDSLLENLEKIEKEQSKQAVEMKNDKSEEEQSSSSVKKDETNVKMESEGGADDSAEEGDLLDDDDNEDRGDDQLELIKDDEKEAEEGEDDRDSANGEDDS [HNRNPC]”, the figures for the thermal stability score with HeLa Kyoto [1] (setting [5]) and in the data set on HeLa Kyoto [1] (cell cycle stage: mitosis) were 7.33 and 16.5, respectively. In addition, in the data set with HeLa Kyoto [2], the “solubility in G1/S (log2)” value was -0.0638. Further, the “solubility change mitosis (log2)” value in the data set with HeLa Kyoto [3] was determined as 0.36. The melting temperature came to 47.4 °C in the data set on HeLa Kyoto [4] (cell cycle stage: G1/S) and 49.5 °C in the data set on HeLa Kyoto [4] (cell cycle stage: mitosis).
